The values that follow come from US20060258586A1, “Compositions and uses of secreted polypeptide, Zsig98” (priority 2005, published 2006).

The subject of series [1] is cisplatin- or syrup of ipecac-induced emesis. As to conditions: 3 mg/kg i.p.; cited from earlier work.
Series [2] deals with the molecule itself. As to the kind of experiment: SDS PAGE of refolded synthetic peptide; self-association.
The subject of a further series is strips of ileum. As to the kind of experiment: guinea pig ileum organ bath contractility. The note with it: isolated ileum strips. The method, then:
In another model, male Hartley Guinea pigs at six weeks of age weighing approximately 0.5 kg are euthanized by carbon monoxide. Intestinal tissue is harvested as follows: 2-3 cm longitudinal sections of ileum 10 cm rostral of the cecum, and 2-3 cm longitudinal sections of duodenum, jejunum, and proximal and distal colon.
Tissue is washed in Krebs Ringer's Bicarbonate buffer containing 118.2 mM NaCl, 4.6 mM KCl, 1.2 mm MgS04, 24.8 mM NaHC03, 1.2 mM KH2P04, 2.5 mM CaCl2 and 10 mM glucose. […] Isometric contractions are measured with a force displacement transducer and recorded on a chart recorder using Po-ne-mah Physiology Platform Software. […]
Varying doses of Zsig98 from 1-400 ng/ml are tested for activity on strips of ileum. Muscle contractions are detected immediately after adding Zsig98 protein and are recorded at concentrations as low as 1 ng/ml or 100 picomolar. The EC 50 of this response is measured. […]
In another model, male Hartley Guinea pigs at six weeks of age weighing approximately 0.5 kg are euthanized by carbon monoxide. […] Isometric contractions are measured with a force displacement transducer and recorded on a chart recorder using Po-ne-mah Physiology Platform Software. […] Muscle contractions are detected immediately after adding Zsig98 protein and are recorded at concentrations as low as 1 ng/ml or 100 picomolar. The EC 50 of this response is measured. […]

Take `COc1ccccc1CN[C@H]1CCCN[C@H]1c1ccccc1` (relative stereo) [(.+−.) cis-3-(2-methoxybenzylamino)-2-phenyl piperidine]: in series [1], the anti-emetic activity entry is “exhibited anti-emetic activity”.

B1: Mature Zsig98, synthetic, made by native ligation and refolded (PEP05014 and PEP05015) (peptide)
chain: EPAGSAVPAQSRPCVDCHAFEFMQRALQDLRKTACSLDARTETLLLQAERRALCACWPAGH
notes: also called zsig98 peptide; synthetic zsig98
Turning to B1, the binding result in series [2] was “binds”.

B2: Zsig98: secreted polypeptide; mature form amino acids 35 to 95 of SEQ ID NO:2 (SEQ ID NO:18) (protein, listed as Homo sapiens)
chain: EPAGSAVPAQSRPCVDCHAFEFMQRALQDLRKTACSLDARTETLLLQAERRALCACWPAGH
modifications: not fully specified
Take B2: the “activity in the presence of 5HT” value with strips of ileum is “a secondary contraction is observed”.
